The values below come from US11046981B2, “Host cell modified to produce lactams” (The Regents of the University of California, priority 2016, dated 2021).

Data set [1] has as its target T1, ORF27 (Streptomyces aizunensis, UniProt Q52V65).
T1 sequence (Q52V65 1-470): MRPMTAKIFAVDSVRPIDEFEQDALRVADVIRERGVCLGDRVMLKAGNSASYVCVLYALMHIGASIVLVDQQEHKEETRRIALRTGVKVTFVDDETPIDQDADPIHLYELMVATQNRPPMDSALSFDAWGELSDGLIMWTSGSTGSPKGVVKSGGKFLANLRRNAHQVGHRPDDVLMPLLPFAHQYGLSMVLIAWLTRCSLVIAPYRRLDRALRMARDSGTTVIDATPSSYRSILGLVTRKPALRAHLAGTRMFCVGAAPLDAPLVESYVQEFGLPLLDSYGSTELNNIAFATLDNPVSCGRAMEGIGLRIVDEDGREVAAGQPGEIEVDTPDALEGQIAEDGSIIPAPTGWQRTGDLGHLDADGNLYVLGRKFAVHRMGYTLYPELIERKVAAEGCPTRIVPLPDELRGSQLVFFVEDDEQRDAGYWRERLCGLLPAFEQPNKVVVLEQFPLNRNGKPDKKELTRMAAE
In words: ATP-PPi release assay for ORF27 (substrate range, steady state parameters). The class given is biochemical. The note with it: substrates with a negatively charged group on the ω-terminal end. The procedure: The substrate range of ORF27 was determined by ATP-PPi release assays as previously described (12). Without prior knowledge about the reaction pathways, the ATP-PPi assay served a semi-quantitative method to compare substrate induced acceleration of ATP consumption. For kinetic investigation of ORF27 activity with different substrates, the inorganic pyrophosphate released by enzymatic reaction was measured continuously using the EnzChek Pyrophosphate Assay Kit (Invitrogen). A typical assay contained in a total volume of 150 μL: 5 μM of ORF27, 0-20 mM substrates, 1 mM ATP, 1 mM CoASH and 1 mM Mg(Cl)2 in 100 mM HEPES, pH 7.5. 2-amino-6-mercapto-7-methylpurine ribonucleoside (MESG) substrate, purine nucleoside phosphorylase and inorganic pyrophosphatase were added according to the protocol. Reactions were initiated by the addition of ATP and monitored at 360 nm with SpectraMax M2 (Molecular Devices, Sunnyvale, Calif.). Initial velocities were calculated using the standard curve for inorganic pyrophosphate. For each concentration, control reactions were carried out without enzyme or without ATP. The rates of PPi release were converted to observed rates, and the Michaelis-Menten kinetic parameters were obtained. […]
The sensitivity of the ATP-PPi release assay (5 μM Pi) allowed the initial velocity to be determined within the first 2 min of reaction incubation. […]

Data set [2] deals with T1, ORF27. Put plainly: In vitro ORF27 lactam formation with ATP or ADP, product analysis by HPLC-MS. The data set is classed as biochemical. The note with it: ADP instead of ATP to activate ω-amino fatty acids. The protocol: (§1) To compare formation of various lactams by ORF27, a reaction mixture containing […] of ORF27, 5 mM ω-amino fatty acids substrates, 1 mM ATP or ADP, 0.5 mM CoASH and 1 mM Mg(CI)2 in 100 mM HEPES (pH=8) was incubated at 25° C. The reactions were quenched by addition of methanol to a final concentration of 50% (v/v) at multiple time points (0 min, 15 min, 1 h, 2 h, 4 h and 19 h). The resulting quenched reactions were kept at 4° C. and filtered through 10 K Amicon Ultra-0.5 mL Centrifugal Filters (Millipore) at 8000×g for 30 min. The filtered solutions were analyzed for lactams and nucleotides using HPLC-MS. Control reactions were carried out without enzyme, without substrate, without ATP, without CoASH or without MgCl2 (supplying additional 0.2 mM EDTA to chelate Mg^2+ ions from purified protein stock). Caprolactam, valerolactam and butyrolactam, AMP, ADP and ATP were purchased as standards from Sigma-Aldrich. The pH dependence of ORF27-catalyzed butrylactam formation was determined using an end-point assay, and the amount of butyrolactam was determined using the HPLC-MS method described above.
The ORF27-catalyzed lactam formation reaction in vitro was monitored for both nucleotide and lactam products, using either ATP or ADP as the energy source. […] In the absence of ORF27, ATP remained stable throughout the reaction (FIG. 6A). […]

The nature of data set [3]: Solubility noted during preparation of substrate stock solution. The data set is classed as physicochemical. To be noted: under neutral pH; HCl added to obtain 100 mM stock solution in pH ~2.0. An excerpt:
(§2) The acids assayed were glutamic acid, γ-aminobutyrate (GABA), 4-guanidinobutyric acid, (S)-3-hydroxyl-butyric acid, valeric acid, 4-methyl-hexanoic acid, 3-aminobutyric acid, 6-aminocaproic acid, 6-guanidinohexanoic acid, glutaric acid, adipic acid, 2-aminobutyric acid and (Sigma-Aldrich, St. Louis, Mo.).

Substrate in data set [4]: NCCCC(=O)O
Put plainly: ATP-PPi release assay for ORF27 (substrate range, steady state parameters). The class given is biochemical, Streptomyces aizunensis. To be noted: other: 100 mM HEPES, pH 7.5 at 25° C. The protocol: (§3) The substrate range of ORF27 was determined by ATP-PPi release assays as previously described (12). Without prior knowledge about the reaction pathways, the ATP-PPi assay served a semi-quantitative method to compare substrate induced acceleration of ATP consumption. For kinetic investigation of ORF27 activity with different substrates, the inorganic pyrophosphate released by enzymatic reaction was measured continuously using the EnzChek Pyrophosphate Assay Kit (Invitrogen). A typical assay contained in a total volume of 150 μL: 5 μM of ORF27, 0-20 mM substrates, 1 mM ATP, 1 mM CoASH and 1 mM Mg(Cl)2 in 100 mM HEPES, pH 7.5. 2-amino-6-mercapto-7-methylpurine ribonucleoside (MESG) substrate, purine nucleoside phosphorylase and inorganic pyrophosphatase were added according to the protocol. Reactions were initiated by the addition of ATP and monitored at 360 nm with SpectraMax M2 (Molecular Devices, Sunnyvale, Calif.). Initial velocities were calculated using the standard curve for inorganic pyrophosphate. For each concentration, control reactions were carried out without enzyme or without ATP. The rates of PPi release were converted to observed rates, and the Michaelis-Menten kinetic parameters were obtained.
as §2
(§4) The sensitivity of the ATP-PPi release assay (5 μM Pi) allowed the initial velocity to be determined within the first 2 min of reaction incubation. During this time period, ATP hydrolysis activity by ORF27 was not observed according to the ATP-PPi assay (ATP hydrolysis was observed over longer period of time though, see discussion below).

Substrate in data set [5]: CCC(C)CCC(=O)O
The data set is described as above. The data set is classed as biochemical, Streptomyces aizunensis. The note with it: other: 100 mM HEPES, pH 7.5 at 25° C. The procedure:
as §3, §2, §4

Substrate in data set [6]: CCC(N)C(=O)O
Described as above. The class given is biochemical, Streptomyces aizunensis. To be noted: other: 100 mM HEPES, pH 7.5 at 25° C. The protocol:
as §3, §2, §4

Substrate in data set [7]: N=C(N)NCCCC(=O)O
The description is as above. The data set is classed as biochemical, Streptomyces aizunensis. To be noted: other: 100 mM HEPES, pH 7.5 at 25° C. The procedure:
as §3, §2, §4

Substrate in data set [8]: CCCCC(=O)O
The description is as above. The data set is classed as biochemical, Streptomyces aizunensis. The note with it: other: 100 mM HEPES, pH 7.5 at 25° C. The procedure: as §3, §2, §4

Substrate in data set [9]: NCCCCCC(=O)O
The data set is described as above. The class given is biochemical, Streptomyces aizunensis. The note with it: other: 100 mM HEPES, pH 7.5 at 25° C. The procedure: as §3, §2, §4

Substrate in data set [10]: N=C(N)NCCCCCC(=O)O
The data set is described as above. The class given is biochemical, Streptomyces aizunensis. The note with it: other: 100 mM HEPES, pH 7.5 at 25° C. The procedure:
as §3, §2, §4

Data set [11] in a line: pH profile of ORF27 catalyzed butyrolactam formation (end-point assay). The data set is classed as biochemical. The procedure: FIG. 8. pH profile of ORF27 catalyzed butyrolactam formation. A reaction mixture containing 5 μM ORF27, 1 mM GABA, 1 mM ATP, 1 mM CoASH and 1 mM Mg(Cl)2 in 100 mM HEPES (pH 7.5) was incubated at 25° C. for 30 min. The reaction was quenched by equal volume of methanol, and the filtered solution was analyzed by analytical method described above.
as §1, with “Caprolactam, valerolactam and butyrolactam, AMP, ADP and ATP were purchased as standards from Sigma-Aldrich.” left out

Turning to `O=C(O)CCCCC(=O)O` [adipic acid, Adipic acid], at ORF27 [1], the “enzyme activity of ORF27 on the substrate” value was “not observed”.

Turning to `Nc1ncnc2c1ncn2[C@@H]1O[C@H](COP(=O)(O)OP(=O)(O)O)[C@@H](O)[C@H]1O` [ADP], the “rate of lactam formation with ADP relative to the similar reaction with ATP” value at ORF27 [2] is 20-50%.

As for `O=C(O)CCCC(=O)O` [glutaric acid, Glutaric acid], the “enzyme activity of ORF27 on the substrate” value on ORF27 [1] was “not observed”.

Take `N=C(N)NCCCCCC(=O)O` [6-Guanidinohexanoic acid]: the solubility result in [3] is recorded as “low solubility”.

B1: ORF27 (Streptomyces aizunensis) (protein)
chain: T1 sequence (Q52V65 1-470)
One may read the Km as the concentration of substrate that gives half-maximal velocity. As a reminder, the kcat is the number of substrate molecules converted per active site and unit of time at saturation. The kcat/Km is the turnover number divided by the Michaelis constant. B1: the Km in data set [4] stood at 17.2 mM; in data set [5] it was 12.1 mM; in data set [6], 1.63 mM; in data set [7] it was 0.013 mM; in [8], 52.2 mM; in data set [9], 0.056 mM. In addition, the Km in [10] is on record as 0.11 mM. Moreover, the kcat was 0.00583 s⁻¹ in data set [4]; 0.0217 s⁻¹ in [5]; 0.0006 s⁻¹ in [6]; 0.002 s⁻¹ in data set [7]; 0.0283 s⁻¹ in data set [8]; 0.00283 s⁻¹ in [9]. Moreover, the kcat in data set [10] came to 0.0055 s⁻¹. Also, the kcat/Km in data set [4] was found to be 0.338 M⁻¹ s⁻¹; in [5], 1.8 M⁻¹ s⁻¹; in data set [6], 0.37 M⁻¹ s⁻¹; in data set [7], 157 M⁻¹ s⁻¹; in data set [8], 0.543 M⁻¹ s⁻¹; in [9], 49.4 M⁻¹ s⁻¹. For the same molecule, the catalytic efficiency (kcat/Km) in data set [10] came to 49 M⁻¹ s⁻¹. The “pH below which the enzyme precipitated and became inactive” value in [11] is given as “below 6.0”. Further, the pH optimum in [11] is given as 8.0.
